{
  "source": "paper PMC4854488",
  "about": "(Biochemistry, 2016)",
  "molecules": {"B1": {"name": "oxalate decarboxylase (OxDC) (Bacillus subtilis subsp. subtilis str. 168) (protein)", "chain": "MKKQNDIPQPIRGDKGATVKIPRNIERDRQNPDMLVPPETDHGTVSNMKFSFSDTHNRLEKGGYAREVTVRELPISENLASVNMRLKPGAIRELHWHKEAEWAYMIYGSARVTIVDEKGRSFIDDVGEGDLWYFPSGLPHSIQALEEGAEFLLVFDDGSFSENSTFQLTDWLAHTPKEVIAANFGVTKEEISNLPGKEKYIFENQLPGSLKDDIVEGPNGEVPYPFTYRLLEQEPIESEGGKVYIADSTNFKVSKTIASALVTVEPGAMRELHWHPNTHEWQYYISGKARMTVFASDGHARTFNYQAGDVGYVPFAMGHYVENIGDEPLVFLEIFKDDHYADVSLNQWLAMLPETFVQAHLDLGKDFTDVLSKEKHPVVKKKCSK"}, "B2": {"name": "oxalate decarboxylase (OxDC) (Bacillus subtilis subsp. subtilis str. 168; E162D/N163S/S161D/S164N) (protein)", "chain": "B1 chain with S161D, E162D, N163S, S164N"}, "B3": {"name": "oxalate decarboxylase (OxDC) (Bacillus subtilis subsp. subtilis str. 168; E162D/S161D) (protein)", "chain": "B1 chain with S161D, E162D"}, "B4": {"name": "oxalate decarboxylase (OxDC) (Bacillus subtilis subsp. subtilis str. 168; N163S/S161D/S164N) (protein)", "chain": "B1 chain with S161D, N163S, S164N"}, "B5": {"name": "oxalate decarboxylase (OxDC) (Bacillus subtilis subsp. subtilis str. 168; S161D) (protein)", "chain": "B1 chain with S161D"}, "B6": {"name": "oxalate decarboxylase (OxDC) (Bacillus subtilis subsp. subtilis str. 168; DEL162-162) (protein)", "chain": "MKKQNDIPQPIRGDKGATVKIPRNIERDRQNPDMLVPPETDHGTVSNMKFSFSDTHNRLEKGGYAREVTVRELPISENLASVNMRLKPGAIRELHWHKEAEWAYMIYGSARVTIVDEKGRSFIDDVGEGDLWYFPSGLPHSIQALEEGAEFLLVFDDGSFSNSTFQLTDWLAHTPKEVIAANFGVTKEEISNLPGKEKYIFENQLPGSLKDDIVEGPNGEVPYPFTYRLLEQEPIESEGGKVYIADSTNFKVSKTIASALVTVEPGAMRELHWHPNTHEWQYYISGKARMTVFASDGHARTFNYQAGDVGYVPFAMGHYVENIGDEPLVFLEIFKDDHYADVSLNQWLAMLPETFVQAHLDLGKDFTDVLSKEKHPVVKKKCSK"}},
  "key": {"[1]": {"molecular_target": "T1, oxalate decarboxylase (OxDC) (Bacillus subtilis, UniProt O34714, DEL162-162)", "T1 construct": "C-terminal His6 tag kept, expressed in E. coli BL21(DE3), Mn-containing (Co(II)-substituted for the crystal; model residues 6-382)", "test": "X-ray crystal structure, […] Å", "format": "binding", "conditions": "Co(II)-substituted ΔE162 variant; oxalate end-on (monodentate) on Co(II) in N-terminal domain; cocrystallised, well pH 9.5, 17 °C"}, "[2]": {"substrate": "O=C(O)C(=O)O", "test": "purified protein", "conditions": "25 °C"}, "[3]": {"conditions": "decarboxylase activity, Mn enzyme (1.4 Mn/monomer), 100 mM citrate pH 4.2, 300 uM o-phenylenediamine, pH 4.2"}, "[4]": {"conditions": "oxidase activity, Mn enzyme (1.4 Mn/monomer), 50 mM succinate pH 4.0, O2 co-substrate, pH 4.0"}, "[5]": {"conditions": "DDSN variant, decarboxylase activity, Mn enzyme (1.5 Mn/monomer), 100 mM citrate pH 4.2, 300 uM o-phenylenediamine, pH 4.2"}, "[6]": {"conditions": "DDNS variant, decarboxylase activity, Mn enzyme (1.5 Mn/monomer), 100 mM citrate pH 4.2, 300 uM o-phenylenediamine, pH 4.2"}, "[7]": {"conditions": "DESN variant, decarboxylase activity, Mn enzyme (1.5 Mn/monomer), 100 mM citrate pH 4.2, 300 uM o-phenylenediamine, pH 4.2"}, "[8]": {"conditions": "DESN variant, oxidase activity, Mn enzyme (1.5 Mn/monomer), 50 mM succinate pH 4.0, O2 co-substrate, pH 4.0"}, "[9]": {"conditions": "DENS variant, decarboxylase activity, Mn enzyme (1.6 Mn/monomer), 100 mM citrate pH 4.2, 300 uM o-phenylenediamine, pH 4.2"}, "[10]": {"conditions": "ΔE162 variant, decarboxylase activity, Mn enzyme (1.3 Mn/monomer), 100 mM citrate pH 4.2, 300 uM o-phenylenediamine, pH 4.2"}, "[11]": {"conditions": "ΔE162 variant, oxidase activity, Mn enzyme (1.3 Mn/monomer), 50 mM succinate pH 4.0, O2 co-substrate, pH 4.0"}},
  "note": "Substitutions are numbered along the chain they refer to. Names may count otherwise.",
  "data": [
    {"molecule": "O=C(O)C(=O)O", "note": "[oxalate]", "values": [
      {"measurement": "X-ray crystal structure, 2.6 Å", "setting": "[1]", "result": "we observed an oxalate molecule bound within the N-terminal domain"}
    ]},
    {"molecule": "B1", "values": [
      {"measurement": "Km", "setting": "[2]; [3]", "result": "8 ± 1", "unit": "mM"},
      {"measurement": "kcat", "setting": "[2]; [3]", "result": 60, "unit": "s⁻¹"},
      {"measurement": "kcat/Km", "setting": "[2]; [3]", "result": 5700, "unit": "M⁻¹ s⁻¹"},
      {"measurement": "Km", "setting": "[2]; [4]", "result": "5.0 ± 0.2", "unit": "mM"},
      {"measurement": "kcat", "setting": "[2]; [4]", "result": 0.13, "unit": "s⁻¹"},
      {"measurement": "kcat/Km", "setting": "[2]; [4]", "result": 19, "unit": "M⁻¹ s⁻¹"}
    ]},
    {"molecule": "B2", "values": [
      {"measurement": "Km", "setting": "[2]; [5]", "result": "3 ± 1", "unit": "mM"},
      {"measurement": "kcat", "setting": "[2]; [5]", "result": 9, "unit": "s⁻¹"},
      {"measurement": "kcat/Km", "setting": "[2]; [5]", "result": 2400, "unit": "M⁻¹ s⁻¹"}
    ]},
    {"molecule": "B3", "values": [
      {"measurement": "Km", "setting": "[2]; [6]", "result": "10 ± 2", "unit": "mM"},
      {"measurement": "kcat", "setting": "[2]; [6]", "result": 45, "unit": "s⁻¹"},
      {"measurement": "kcat/Km", "setting": "[2]; [6]", "result": 2900, "unit": "M⁻¹ s⁻¹"}
    ]},
    {"molecule": "B4", "values": [
      {"measurement": "Km", "setting": "[2]; [7]", "result": "6 ± 1", "unit": "mM"},
      {"measurement": "kcat", "setting": "[2]; [7]", "result": 40, "unit": "s⁻¹"},
      {"measurement": "kcat/Km", "setting": "[2]; [7]", "result": 4400, "unit": "M⁻¹ s⁻¹"},
      {"measurement": "Km", "setting": "[2]; [8]", "result": "11 ± 2", "unit": "mM"},
      {"measurement": "kcat", "setting": "[2]; [8]", "result": 0.1, "unit": "s⁻¹"},
      {"measurement": "kcat/Km", "setting": "[2]; [8]", "result": 11, "unit": "M⁻¹ s⁻¹"}
    ]},
    {"molecule": "B5", "values": [
      {"measurement": "Km", "setting": "[2]; [9]", "result": "10 ± 1", "unit": "mM"},
      {"measurement": "kcat", "setting": "[2]; [9]", "result": 63, "unit": "s⁻¹"},
      {"measurement": "kcat/Km", "setting": "[2]; [9]", "result": 3900, "unit": "M⁻¹ s⁻¹"}
    ]},
    {"molecule": "B6", "values": [
      {"measurement": "Km", "setting": "[2]; [10]", "result": "1.6 ± 0.7", "unit": "mM"},
      {"measurement": "kcat", "setting": "[2]; [10]", "result": 0.01, "unit": "s⁻¹"},
      {"measurement": "kcat/Km", "setting": "[2]; [10]", "result": 5, "unit": "M⁻¹ s⁻¹"},
      {"measurement": "Km", "setting": "[2]; [11]", "result": "3 ± 1", "unit": "mM"},
      {"measurement": "kcat", "setting": "[2]; [11]", "result": 0.05, "unit": "s⁻¹"},
      {"measurement": "kcat/Km", "setting": "[2]; [11]", "result": 14, "unit": "M⁻¹ s⁻¹"}
    ]}
  ]
}
